What is called EC50 (read off the curve) is the concentration that produces a half-maximal response. Read a low EC50 (read off the curve) as higher potency in that assay. The term IC50 denotes the concentration that gives 50% inhibition. A lower IC50 goes with greater potency in that assay. The EC50 is the concentration giving half of the maximal effect. A higher EC50 goes with a less potent agent.

We go through three molecules from patent publication US20250326828A1 (STAIDSON BEIJING BIOPHARMACEUTICALS, published 2025).

Experiment [1] addresses T1, human GDF15-his (human).
T1 construct: Recombinant His-tagged fusion protein expressed in 293F cells
T1 chain: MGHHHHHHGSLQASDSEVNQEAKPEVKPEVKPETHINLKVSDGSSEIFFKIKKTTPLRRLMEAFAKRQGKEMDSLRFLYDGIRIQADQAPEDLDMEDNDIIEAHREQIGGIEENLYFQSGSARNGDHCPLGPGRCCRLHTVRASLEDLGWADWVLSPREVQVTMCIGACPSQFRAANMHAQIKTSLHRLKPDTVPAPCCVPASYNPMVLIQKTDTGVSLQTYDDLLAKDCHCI
Nature of the experiment: ELISA as in Example 2: plate coated with the antibody, graded human GDF15-his, anti-his-HRP, OD450; the sheet's x axis reads 'Log GDF15 antibody (nM)'. How it is done:
(§1) ELISA binding assay: The purified monoclonal antibody was subjected to a binding assay with human GDF15-his protein. The binding assay was designed to characterize the binding activity of the anti-GDF15 antibody. Briefly, a 96-well plate was coated with anti-GDF15 antibody (200 ng/well) and incubated for 1 hour at 37° C. The plates were washed with PBST and then blocked for 1 hour at room temperature using 1% BSA. Then 100 µl/well of gradient-diluted human GDF15-his solution (dose range 0-50 μg/ml) was added into plates. After incubation, 100 μl of anti-his tag secondary antibody (anti-his-HRP (1:2000), Bersee, cat #BHR790) was added to each well. Finally, the TMB solution (100 μl/well) was added. 2M H₂SO₄ was used to stop the reaction. The OD450 was measured, and the binding curves were generated by PRISM software to analyze the affinity of candidate antibodies to human GDF15 antigen, and EC₅₀ value were calculated.
In general terms: An ELISA detects its analyte on a solid surface through an enzyme-linked reagent.

In experiment [2] the target is T2, human GDF15-hFc (human).
T2 construct: Recombinant hFc-tagged fusion protein expressed in 293F cells
T2 chain: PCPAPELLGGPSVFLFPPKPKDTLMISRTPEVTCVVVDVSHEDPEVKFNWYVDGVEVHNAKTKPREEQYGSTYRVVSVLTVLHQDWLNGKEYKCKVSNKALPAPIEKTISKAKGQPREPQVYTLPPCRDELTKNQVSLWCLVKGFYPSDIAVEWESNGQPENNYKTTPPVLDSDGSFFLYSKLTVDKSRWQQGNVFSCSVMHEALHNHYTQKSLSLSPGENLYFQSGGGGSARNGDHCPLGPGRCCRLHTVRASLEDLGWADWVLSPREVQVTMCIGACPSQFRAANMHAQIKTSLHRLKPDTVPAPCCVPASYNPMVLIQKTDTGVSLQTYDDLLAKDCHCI
Nature of the experiment: competition ELISA as in Example 2; GFRAL-his coated, antibody titrated against human GDF15-hFc. The procedure, abridged: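 GFRAL-his coated at 100 ng/well, blocked with 1% BSA; antibodies (0–10 μg/ml) added with equal volume of human GDF15-hFc ([…]). Bound GDF15-hFc detected with anti-human IgG-HRP/TMB at OD450; IC₅₀ from binding curve as neutralizing activity.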

Experiment [3] addresses T1, human GDF15-his. Nature of the experiment: cell-based or functional assay.
Experiment [4] deals with T1, human GDF15-his. Nature of the experiment: ELISA; antibody coated, human GDF15-his titrated, anti-his-HRP detection. As to the method:
as §1

For experiment [5], the target named is T1, human GDF15-his. Nature of the experiment: ELISA as in Example 2: plate coated with the antibody, graded human GDF15-his, anti-his-HRP, OD450; the sheet's x axis reads 'Log GDF15 Antibody (nM)'. The procedure, abridged:
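Plate coated with purified antibody (200 ng/well, 1 h, 37° C), BSA-blocked, then graded human GDF15-his (0-50 μg/ml) added. Bound antigen detected with anti-his-HRP (1:2000) and TMB, stopped with H₂SO₄, OD450 read. EC₅₀ derived from binding curves.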

The target of experiment [6] is T1, human GDF15-his. The description is as above. How it is done: as §1
Experiment [7] has as its target T1, human GDF15-his. Nature of the experiment: cell-based or functional assay.
In experiment [8] the target is T1, human GDF15-his. Nature of the experiment: cell-based or functional assay.
For experiment [9], the target named is T1, human GDF15-his. Nature of the experiment: cell-based or functional assay.
The target in experiment [10] is T2, human GDF15-hFc. Nature of the experiment: competition ELISA; GFRAL-his coated, antibody titrated against human GDF15-hFc, anti-human IgG-HRP detection. How it is done:
The ELISA assay was performed to measure the inhibitory activity of anti-GDF15 antibodies in concentration gradients to block GDF15 binding to GFRAL receptor. IC₅₀ values were used as a measure for neutralizing activity of candidate molecules. Briefly, 96-well plates were coated with 100 ng/well of GFRAL-his protein (SEQ ID NO: 74), and incubated for 1 h at 37° C. The plates were washed with PBST and then blocked for 1 hour at 37° C. with 1% BSA. Gradient-diluted antibodies (dose range 0˜10 μg/ml) was added into each well, immediately followed by equal volume of human GDF15-hFc protein ([…]). After incubation and washing, 100 μl of anti-human IgG secondary antibody (goat anti-human IgG-HRP, Sigma, A8667) was added to each well. Finally, TMB solution (100 μl/well) was added. 2M H₂SO₄ was used to stop the reaction. The OD450 was measured and the binding curve was generated by PRISM to calculate the IC₅₀ value.

Experiment [11] has as its target T1, human GDF15-his. Nature of the experiment: cell-based or functional assay.

Read-outs that look alike come from different tables or passages of the source.

B1: hum_R37-16 (antibody, V domains shown)
VH: EVQLVESGGGLVKPGGSLRLSCAASGFSLSNYYMSWVRQAPGKGLEWIGMISFSGTTYATWAKGRFTISRDDSKNTVYLQINSLKTEDTAVYFCARVVYAGWTYPLGIWGQGTLVTVSS
VL: DIQMTQSPSSLSASVGDRVTITCQASQSISSVLSWYQQKPGKPPKLLIYEASILASGVPSRFSGSGSGTDFTLTISSLQPEDFATYYCQANYDVYNYGNPFGGGTKVEIK
notes: Tested in human IgG1 format
B1: in experiment [1], the “EC50 (read off the curve)” value was about 200 nM. In experiment [2], this molecule came in with a half-maximal inhibitory concentration (IC50) of 1.63 nM. Besides, in experiment [3], the “IC50 (read off the curve), SRE-luciferase signal in 293T-GFRAL/RET-Luc cells with human GDF15-his” value was about 0.08 nM.

B2: hum_R37-17 (antibody, V domains shown)
VH: EVQLVESGGGLVKPGGSLRLSCAASGFSLSNYYMSWVRQAPGKGLEWVGMISFSGTTYATWAKGRFTISRDDSKNTVYLQINSLKTEDTAVYFCARVVYAGWTYPLGIWGQGTLVTVSS
VL: DIQMTQSPSSLSASVGDRVTITCQASQSISSVLSWYQQKPGKPPKLLIYEASILASGVPSRFSGSGSGTDFTLTISSLQPEDFATYYCQANYDVYNYGNPFGGGTKVEIK
notes: Tested in human IgG1 format
For the molecule B2, the “EC50 (read off the curve)” value in [1] was about 200 nM. The molecule further showed a half-inhibitory concentration (IC50) in experiment [2] of 1.33 nM. In experiment [3], the “IC50 (read off the curve), SRE-luciferase signal in 293T-GFRAL/RET-Luc cells with human GDF15-his” value is about 0.08 nM.

B3: GDF-R37-rabIg1 (antibody, V domains shown)
VH: QQLKESGGRLVTPGTPLTLTCTASGFSLSNYYMSWVRQAPGEGLEWIGMISFSGTTYATWAKGRFTISKTSTTVDLKITSPTTEDTATYFCARVVYAGWTYPLGIWGPGTLVTISS
VL: AVVLTQTAASVSEPVGGTVTIKCQASQSISSVLSWYQQKPGQPPKALIYEASILASGVPSRFKGSGSGTDFTLTISDLECADAATYYCQANYDVYNYGNPFGGGTEVVVK
notes: Full-length rabbit antibody: rabbit IgG1 heavy constant and rabbit light constant; also called GDF15-R37-rabIg1
The molecule B3 displayed an EC50 in experiment [4] of 43.1 nM. Further, the “EC50 (read off the curve)” value in experiment [5] is about 60 nM; in experiment [6], about 80 nM; in [1], about 200 nM. Moreover, the “IC50 (read off the curve), SRE-luciferase signal in 293T-GFRAL/RET-Luc cells with human GDF15-his” value is about 0.05 nM in experiment [7], about 0.1 nM in [8], about 0.2 nM in experiment [9] and about 0.06 nM in experiment [3]. In addition, the IC50 worked out at 1.28 nM in experiment [10] and 2.49 nM in [2]. Further, the “IC50, 293T-GFRAL/RET-Luc SRE luciferase reporter cells stimulated with human GDF15-his (15 ng/ml)” value in experiment [11] is 0.15 nM.
